Source: paper PMC9712689

What was measured:
[1] = target: cross-linked RlpA-Δ32·MltF2 complex (SPR chip) (P. aeruginosa PAO1) (UniProt Q9X6V6); assay: SPR
[2] = target: RlpA-Δ32 (P. aeruginosa PAO1) (UniProt Q9X6V6); assay: SPR
[3] = target: RlpA-Δ32, fluorescently labeled (P. aeruginosa PAO1) (UniProt Q9X6V6); assay: MST
[4] = target: RlpA-Δ32·MltF2 complex (MST) (P. aeruginosa PAO1) (UniProt Q9X6V6); assay: MST
[5] = target: RlpA-SPOR (P. aeruginosa PAO1) (UniProt Q9X6V6); assay: SPR
[6] = target: RlpA-SPOR (P. aeruginosa PAO1) (UniProt Q9X6V6); assay: ITC

“PBP1a (from UniProt Q07806 27-822) (enzyme)” gave a Kd [1] of 280 nM, a koff [1] of 0.0048 s⁻¹ and a kon [1] of 51700 M⁻¹ s⁻¹.

PBP1b (enzyme) was tested, and the Kd [2] was 55 nM, the koff [2] was 0.0005 s⁻¹ and the kon [2] was 9100 M⁻¹ s⁻¹. It also gave a Kd [3] of 16 nM and a Kd [4] of 57 nM.

Work on SltB3 (enzyme) yielded a Kd [2] of 140 nM, a koff [2] of 0.00079 s⁻¹ and a kon [2] of 5500 M⁻¹ s⁻¹. For the same substance, the Kd [5] was 2140 nM, the koff [5] was 0.00079 s⁻¹ and the kon [5] was 370 M⁻¹ s⁻¹. It also gave a Kd [6] of 79 nM, a stoichiometry N [6] of 1 and a Kd [3] of 92 nM. It also gave a Kd [4] of 390 nM.
